Results on two molecules are retold here after paper PMC6404581, “Staphylococcus aureus toxin LukSF dissociates from its membrane receptor target to enable renewed ligand sequestration” (The FASEB Journal, 2018).

Experiment [1] has as its target sortase-tagged FITC-labeled human C5a receptor, on HEK cells (human) (UniProt P21730). Nature of the experiment: FRET or BRET; sensitized emission FRET, live sortase-tagged FITC-hC5aR cells (donor) with Cy3 mS* (acceptor), 1 h at +4°C, washed, before addition of mF.
The target in experiment [2] is human C5a receptor, endogenous on human polymorphonuclear cells (human (endogenous in PMNs)) (UniProt P21730).
Experiment [3] addresses sortase-tagged FITC-labeled human C5a receptor, on HEK cells (human) (UniProt P21730). The experiment can be described thus: FRET or BRET; sensitized emission FRET, fixed FITC-hC5aR cells with one Cy3-labeled toxin component alone (Cy3 mS* or only Cy3 mF*), 30 min at 4°C then 10 min at 37°C, washed, fixed, PBS.
The target in experiment [4] is T1, wild-type Staphylococcus aureus leukocidin S (Staphylococcus aureus, UniProt O80066 29-312).
T1 construct: also called S(wt); LukS; source: E. coli Rosetta-gami 2 (DE3) pLysS, purified (nickel HisTrap, Superdex 75)
T1 sequence: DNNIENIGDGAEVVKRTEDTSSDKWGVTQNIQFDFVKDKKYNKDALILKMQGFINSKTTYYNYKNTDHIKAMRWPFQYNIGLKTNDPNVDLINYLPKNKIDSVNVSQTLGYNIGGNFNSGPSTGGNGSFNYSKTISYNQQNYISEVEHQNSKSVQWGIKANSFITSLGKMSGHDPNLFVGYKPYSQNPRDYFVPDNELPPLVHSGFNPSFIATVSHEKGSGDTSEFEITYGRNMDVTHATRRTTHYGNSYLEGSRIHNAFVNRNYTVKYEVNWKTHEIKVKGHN
The experiment can be described thus: flow cytometry on cells. To be noted: both partners purified. On the technique in general: Flow cytometry measures light scatter and fluorescence of single cells or particles in a stream.

sortase-tagged FITC-labeled human C5a receptor, on HEK cells (human), sequence (P21730 whole entry): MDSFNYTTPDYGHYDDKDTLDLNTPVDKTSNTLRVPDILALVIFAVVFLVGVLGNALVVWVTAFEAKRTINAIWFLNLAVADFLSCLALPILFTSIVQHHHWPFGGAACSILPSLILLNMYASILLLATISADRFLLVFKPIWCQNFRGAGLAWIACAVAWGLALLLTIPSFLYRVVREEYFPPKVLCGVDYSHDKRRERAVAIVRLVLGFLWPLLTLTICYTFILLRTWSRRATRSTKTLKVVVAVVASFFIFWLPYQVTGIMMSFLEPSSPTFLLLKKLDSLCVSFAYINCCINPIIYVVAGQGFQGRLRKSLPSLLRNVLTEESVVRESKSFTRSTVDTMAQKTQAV
human C5a receptor, endogenous on human polymorphonuclear cells (human (endogenous in PMNs)), sequence (P21730 whole entry): as above

With “maleimide-labeled LukS-K281C-Y113H (natural protein)”, the figures for the FRET efficiency in experiment [1] and in experiment [3] were 75% and 60%, respectively. This molecule also gave a toxin concentration at which PMN permeabilization (DAPI uptake, flow cytometry, 30 min) reaches 100%; modified toxins in place of the wild-type ones in experiment [2] of 3 nM.

B1: G130D leukocidin component F (natural protein, Staphylococcus aureus)
chain: MGSQHITPVSEKKVDDKITLYKTTATSDSDKLKISQILTFNFIKDKSYDKDTLILKAAGNIYSGYTKPNPKDTISSQFYWGSKYNISINSDSNDSVNVVDYAPKNQNEEFQVQQTVGYSYGGDINISNGLSGDGNGSKSFSETINYKQESYRTSLDKRTNFKKIGWDVEAHKIMNNGWGPYGRDSYHSTYGNEMFLGSRQSNLNAGQNFLEYHKMPVLSRGNFNPEFIGVLSRKQNAAKKSKITVTYQREMDRYTNFWNQLHWIGNNYKDENRATHTSIYEVDWENHTVKLIDTQSKEKNPMSAAA
notes: cloning residues before LukF; LukF-PV, S. aureus; they already carry the D (LSGDGNG); residues from the NotI site between LukF and the C-terminal His6; also called F(G130D); LukF mutant G130D LukF; source: E. coli Rosetta-gami 2 (DE3) pLysS, purified (nickel HisTrap, Superdex 75)
Turning to B1, the binding result in experiment [4] is listed as “binds”.
